For the assay, the target named is CD215 (IL-15Rα), CD122 (IL-15Rβ), and CD132 (IL-15Rγ) proteins expressed together on the HEK Blue cell line. The assay is described as follows: cell-based or functional assay.

Consider “Wild-type IL-2 (from UniProt P60568 21-153) (ligand)”, for which the EC50 (nM), SEAP reporter at 620 nm, HEK Blue cell line was 0.007 nM.

Values taken from patent EP4741426A1.
